Assay results published in paper PMC8285061.

T1: His6-Pal2 (Pal2-deltaN65) (Saccharomyces cerevisiae, UniProt P38809 65-366)
T1 sequence: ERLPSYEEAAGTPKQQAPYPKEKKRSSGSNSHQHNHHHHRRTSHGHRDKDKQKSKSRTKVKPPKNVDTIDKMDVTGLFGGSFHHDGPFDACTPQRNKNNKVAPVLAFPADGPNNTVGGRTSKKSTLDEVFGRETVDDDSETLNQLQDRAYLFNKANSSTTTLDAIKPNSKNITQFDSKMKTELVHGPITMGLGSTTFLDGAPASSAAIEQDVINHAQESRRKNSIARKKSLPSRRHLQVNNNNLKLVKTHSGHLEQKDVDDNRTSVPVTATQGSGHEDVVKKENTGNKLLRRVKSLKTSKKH

T2: His6-Pal1 (Pal1-deltaN) (Saccharomyces cerevisiae, UniProt Q05518 165-499)
T2 sequence: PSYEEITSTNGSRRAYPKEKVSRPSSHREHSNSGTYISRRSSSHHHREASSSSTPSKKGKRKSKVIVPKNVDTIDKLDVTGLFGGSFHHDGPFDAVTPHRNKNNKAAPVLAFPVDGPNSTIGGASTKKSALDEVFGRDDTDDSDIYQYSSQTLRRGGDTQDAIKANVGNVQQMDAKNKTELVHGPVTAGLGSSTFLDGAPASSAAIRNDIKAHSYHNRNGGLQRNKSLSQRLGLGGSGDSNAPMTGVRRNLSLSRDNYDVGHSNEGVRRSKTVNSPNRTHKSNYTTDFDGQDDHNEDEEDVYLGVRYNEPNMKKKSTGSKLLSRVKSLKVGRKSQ

B1: Flc-3'-BE (HAC1 3'-UTR bipartite element) (structured_RNA)
RNA: CGUGAGGUUGGCGCGCCCUCCUACAAUUAUUUGUGGCGACUGGGCAGCGACACUGAACA
B2: unlabeled 3'-BE transcript (structured_RNA)
RNA: GGGCGUGAGGUUGGCGCGCCCUCCUACAAUUAUUUGUGGCGACUGGGCAGCGACACUGAACA

Assays:
His6-Ypt1 = His6-Ypt1 (UniProt P01123 1-206); assay: EMSA
[1] = molecular target: T1, His6-Pal2 (Pal2-deltaN65); assay: EMSA
His6-Pal1 (Pal1-deltaN) = molecular target: T2, His6-Pal1 (Pal1-deltaN); assay: EMSA
[2] = molecular target: T1, His6-Pal2 (Pal2-deltaN65); assay: competition

Sequence of His6-Ypt1 (P01123 whole entry): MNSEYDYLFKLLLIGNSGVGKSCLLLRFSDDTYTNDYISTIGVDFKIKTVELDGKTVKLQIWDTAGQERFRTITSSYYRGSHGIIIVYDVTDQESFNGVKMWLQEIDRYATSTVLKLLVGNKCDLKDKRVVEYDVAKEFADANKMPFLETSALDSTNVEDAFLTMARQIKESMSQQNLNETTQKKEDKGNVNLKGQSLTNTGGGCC

Binder | binding result (His6-Ypt1) | binding result [1] | binding result (His6-Pal1 (Pal1-deltaN)) | binding result [2]
B1 | no binding | binds | binds | –
B2 | – | – | – | binds
